Consider one substance from paper doi:10.1101/2021.05.19.444834v1 (bioRxiv, 2021).

One data set relates to ThfB and ThfM. The experiment in a line: In vitro reconstitution with ThfB and ThfM together. Format: biochemical, Thermobifida fusca. Particulars: 10 μM ThfA, 1 μM ThfB, 1 μM ThfM, 0.4 mM SAM, ATP, no KCl, 37 °C; 5 h; LC-MS.
The next data set has as its system O-methyltransferase ThfM. The experiment in a line: In vitro aspartimide formation by ThfM alone. The note with it: 10 μM substrate, 1 μM ThfM, 0.4 mM SAM, 100 mM sodium phosphate, 37 °C; LC-MS. It counts as biochemical, Thermobifida fusca.

In the case of ThfA, the “conversion to triply dehydrated product” value with ThfB and ThfM was ~ 75%. Further, the “modification by ThfM alone” value in the data set with O-methyltransferase ThfM is on record as “no reaction”.
